We go through five molecules from patent US20130123481A1, “MODIFIED NUCLEOSIDES, NUCLEOTIDES, AND NUCLEIC ACIDS, AND USES THEREOF” (MODERNA THERAPEUTICS, priority 2011, published 2013).

One series concerns human PBMC. In words: Cytokine Study: PBMC - G-CSF production (G-CSF ELISA). Format: cell-based. Particulars: mRNA with Lipofectamine 2000. On the procedure: The plates were then incubated at 37° C.
Each condition was done in duplicate.
In the G-CSF ELISA, background signal from the Lipofectamine 2000 (LF2000) untreated condition was subtracted at each time point.
Background: In an ELISA, binding on a coated surface is turned into a signal by an enzyme label.

Series [1] concerns peripheral blood mononuclear cells (PBMC). In words: In Vitro PBMC Studies: Percent modification - G-CSF expression. Format: cell-based, human. Particulars: for G-CSF Expression: 480 ng mRNA. On the procedure: 480 ng of G-CSF mRNA modified with 5-methylcytosine (5mC) and pseudouridine (pseudoU) or unmodified G-CSF mRNA was transfected with 0.4 uL of Lipofectamine 2000 into peripheral blood mononuclear cells (PBMC) from three normal blood donors (D1, D2, and D3). […] The supernatant was harvested and run by ELISA 22 hours after transfection to determine the protein expression. The expression of IFN-alpha and TNF-alpha may be a secondary effect from the transfection of the G-CSF mRNA.

The test system of series [2] is peripheral blood mononuclear cells (PBMC), IFN-alpha. In words: In Vitro PBMC Studies: Percent modification - IFN-alpha expression. In kind it is cell-based, human. On the procedure: (§1) The supernatant was harvested and run by ELISA 22 hours after transfection to determine the protein expression.
Series [3] relates to peripheral blood mononuclear cells (PBMC), TNF-alpha. Description: In Vitro PBMC Studies: Percent modification - TNF-alpha expression. Format: cell-based, human. As to the method:
as §1

In series [4] the test system is peripheral blood mononuclear cells (PBMC). Description: Modified RNA transfected in PBMC (0.1-100% modification) - G-CSF expression. Format: cell-based, human. On the procedure:
500 ng of G-CSF mRNA modified with 5-methylcytosine (5mC) and pseudouridine (pseudoU) or unmodified G-CSF mRNA was transfected with 0.4 uL of Lipofectamine 2000 into peripheral blood mononuclear cells (PBMC) from three normal blood donors (D1, D2, and D3). […] The supernatant was harvested 6 hours and 18 hours after transfection and run by ELISA to determine the protein expression. The expression of G-CSF, IFN-alpha, and TNF-alpha for Donor 1 is shown in Table 10, Donor 2 is shown in Table 11 and Donor 3 is shown in Table 12.

A short description of series [5]: Stability of Modified RNA - storage, gel electrophoresis. Format: physicochemical. On the procedure:
Stability experiments were conducted to obtain a better understanding of storage conditions to retain the integrity of modified RNA. […] After the mRNA had been stored for 0 hours, 2 hours, 6 hours, 24 hours, 48 hours, 5 days and 14 days, the mRNA was analyzed by gel electrophoresis using a Bio-Rad EXPERION™ system. The modified, unmodified and lipoplexed G-CSF mRNA was also stored in RNASTABLE® (Biomatrica, Inc. San Diego, Calif.) at 40° C. or water at −80° C. or 40° C. for 35 days before being analyzed by gel electrophoresis.

Series [6] concerns Human primary foreskin fibroblasts (BJ fibroblasts). Description: Cell Viability in BJ Fibroblasts (CELL TITER GLO, repeated transfection). Format: cell-based. The settings on record: normalized to untreated = 100%. As to the method:
Control samples of Lipofectamine 2000 (LF2000) and unmodified G-CSF mRNA were also transfected. The modified mRNA or control samples were transfected daily for 4 days. The viability of the cells after transfection was evaluated 6 hours and 24 hours after the first transfection (Ti, 6 hours or T1, 24 hours), and 24 hours after the second (T2, 24 hours) and fourth transfection (T4, 24 hours).
To determine cell viability, the culture medium was completely removed and the cells were washed once with 600 ul of sterile PBS without Ca2+/Mg2+ (Gibco/Life Technologies, Manassas, Va.) in order to rinse-off loosely attached cells. PBS was removed and discarded. The cleaned fibroblasts in each well were treated with 220 ul of a diluted CELL TITER GLO® (Promega, catalog #G7570) stock solution (the CELL TITER GLO® stock solution was further diluted 1:1 with an equal amount of sterile PBS). A sterile pipet tip was used to scratch the cells off the plate and accelerate the lysis process.
For two time intervals, T1, 24 hours and T2, 24 hours, an alternative protocol was applied. Cells were washed with PBS, as described above, and subsequently trypsinized with Trypsin/EDTA solution (Gibco/Life Technologies, Manassas, Va.). Cells were detached and collected in 500 ul of medium containing trypsin inhibitor. Cells were harvested by centrifugation at 1200 rcf for 5 minutes. The cell pellet was resuspended in 500 ul PBS. This cell suspension was kept on ice, and 100 ul of this was combined with 100 ul of undiluted Cell Titer Glo solution.
All of the CELL TITER GLO® lysates were then incubated at room temperature for 20 minutes. 20 ul of the lysates were transferred to a white opaque polystyrene 96-well plate (Corning, Manassas, Va.) and combined with 100 ul diluted CELL TITER GLO® solution. The plate reader used was from BioTek Synergy H1 (BioTek, Winooski, Vt.) and the absolute values were normalized to signal of the untreated BJ Fibroblasts to 100% cell vitality.
In general terms: ATP-based viability assays read luminescence as a measure of living cells.

In another series the test system is mice. Description: Intravenous Administration - neutrophil count. Format: in vivo, mouse. Particulars: for Neutrophil: I.V. 50 ug RNA at days 0, 2 and 4, 10% lipoplex. On the procedure: Neutrophils were measured at days 1, 5 and 8. Controls included non-specific mammalian RNA or the formulation buffer alone (F.Buffer). The mice were bled at days 1, 5 and 8 to determine the effect of mRNA-encoded human G-CSF to increase neutrophil count. The dosing regimen is shown in Table 21 as are the resulting neutrophil counts (thousands/uL; K/uL).
In Table 21, an asterisk (*) indicates statistical significance at p<0.001 compared to buffer.

The mark [7] stands for this setting: PBMC donor D1, 0.4 uL Lipofectamine 2000, ELISA 22 hours after transfection.
[8] abbreviates: PBMC donor D2, 22 hours after transfection.
The mark [9] stands for this setting: PBMC donor D3, 22 hours after transfection.

As to “Luciferase: control mRNA encoding luciferase (SEQ ID NO: 3), Cap 1, fully modified with 5-methylcytosine and pseudouridine [reference compound]”, the “G-CSF: 3 Donor Average” value in the series with human PBMC worked out at 18 pg/mL. Moreover, the “G-CSF Expression” value was 90.2 pg/mL in series [1] (setting [7]), 0.0 pg/mL in series [1] (setting [8]) and 22.1 pg/mL in series [1] (setting [9]).

B1: 100% modification: G-CSF mRNA (SEQ ID NO: 1, Cap1) completely modified with 5mC and pseudoU (nucleic acid, listed as Homo Sapiens)
chain: GGGAAAUAAGAGAGAAAAGAAGAGUAAGAAGAAAUAUAAGAGCCACCAUGGCCGGUCCCGCGACCCAAAGCCCCAUGAAACUUAUGGCCCUGCAGUUGCUGCUUUGGCACUCGGCCCUCUGGACAGUCCAAGAAGCGACUCCUCUCGGACCUGCCUCAUCGUUGCCGCAGUCAUUCCUUUUGAAGUGUCUGGAGCAGGUGCGAAAGAUUCAGGGCGAUGGAGCCGCACUCCAAGAGAAGCUCUGCGCGACAUACAAACUUUGCCAUCCCGAGGAGCUCGUACUGCUCGGGCACAGCUUGGGGAUUCCCUGGGCUCCUCUCUCGUCCUGUCCGUCGCAGGCUUUGCAGUUGGCAGGGUGCCUUUCCCAGCUCCACUCCGGUUUGUUCUUGUAUCAGGGACUGCUGCAAGCCCUUGAGGGAAUCUCGCCAGAAUUGGGCCCGACGCUGGACACGUUGCAGCUCGACGUGGCGGAUUUCGCAACAACCAUCUGGCAGCAGAUGGAGGAACUGGGGAUGGCACCCGCGCUGCAGCCCACGCAGGGGGCAAUGCCGGCCUUUGCGUCCGCGUUUCAGCGCAGGGCGGGUGGAGUCCUCGUAGCGAGCCACCUUCAAUCAUUUUUGGAAGUCUCGUACCGGGUGCUGAGACAUCUUGCGCAGCCGUGAAGCGCUGCCUUCUGCGGGGCUUGCCUUCUGGCCAUGCCCUUCUUCUCUCCCUUGCACCUGUACCUCUUGGUCUUUGAAUAAAGCCUGAGUAGGAAG
modifications: Cap1; 5-methylcytidine and pseudouridine
As to B1, the “G-CSF Expression” value in series [1] (setting [7]) is 1968.9 pg/mL; in series [1] (setting [8]), 2595.6 pg/mL; in series [1] (setting [9]), 2835.7 pg/mL. Moreover, in series [1] (average of PBMC donors D1-D3), the “Average G-CSF” value was determined as 2466 pg/mL. In addition, the “Average IFN-a” value in series [2] worked out at 153 pg/mL. Further, the “ratio of protein/cytokine production relative to natural G-CSF mRNA, IFN-alpha” value in series [2] (PBMC, Table 9) came to 100 fold. Further, the “G-CSF/IFN-alpha (PC ratio)” value in series [2] (calculated from Tables 7 and 8) is given as 16. Besides, the “Average TNF-a” value in series [3] came out at 47 pg/mL. Further, the “ratio of protein/cytokine production relative to natural G-CSF mRNA, TNF-alpha” value in series [3] (PBMC, Table 9) worked out at 27 fold. For the same molecule, the “G-CSF/TNF-alpha (PC ratio)” value in series [3] (calculated from Tables 7 and 8) is recorded as 52. Also, the G-CSF in series [4] (PBMC Donor 1, 500 ng mRNA, 6 hours after transfection) was determined as 1815 pg/mL; in series [4] (PBMC Donor 1, 18 hours after transfection), 2224 pg/mL; in series [4] (PBMC Donor 2, 6 hours after transfection) it was 2184 pg/mL; in series [4] (PBMC Donor 2, 18 hours after transfection), 2432 pg/mL; in series [4] (PBMC Donor 3, 6 hours after transfection), 6086 pg/mL; in series [4] (PBMC Donor 3, 18 hours after transfection), 7549 pg/mL.

B2: unmodified G-CSF: Unmodified G-CSF mRNA (SEQ ID NO: 1, Cap1), storage stability (nucleic acid, listed as Homo Sapiens)
chain: B1 chain
modifications: Cap1
As for B2, the “stable out to” value in series [5] (stored at 25° C.) worked out at 48 h; in series [5] (stored at 37° C.) it was 6 h; in series [5] (stored at 50° C.), 2 h. Further, the “Percent Viability T1, 6 hours” value in series [6] (T1, 6 hours) is recorded as 101%. For the same molecule, in series [6] (T1, 24 hours), the “Percent Viability T1, 24 hours” value turned out to be 72%. Moreover, in series [6] (T2, 24 hours), the “Percent Viability T2, 24 hours” value is 74%. Besides, in series [6] (T4, 24 hours), the “Percent Viability T4, 24 hours” value is listed as 42%.

B3: G-CSF (no modification): human G-CSF mRNA having no modifications, formulated in 10% lipoplex (RNAIMAX) (nucleic acid, listed as Homo Sapiens)
chain: B1 chain
modifications: Cap1; polyA tail; lipoplex
In the case of B3, the figures for the Neutrophil with mice (Day 1), in the series with mice (Day 5) and with mice (Day 8) were 1.88 K/uL, 1.95 K/uL and 2.09 K/uL, respectively.

B4: G-CSF modified mRNA: control modified G-CSF mRNA (SEQ ID NO: 1, Cap 1), fully modified 5-methylcytosine and pseudouridine, 8.4 nM (nucleic acid, listed as Homo Sapiens)
chain: B1 chain
modifications: Cap1; 5-methylcytosine and pseudouridine
Consider B4, for which, in the series with mice (intravenous administration), the “increase in neutrophil count above control at day 5” value is reported as “four to five fold increase”.
